Here are results for 3 molecules from article doi:10.1101/2020.11.13.381533 (bioRxiv, 2020).

To fix the notation:
B1: C1A-B3 Fab (Fab, V domains shown)
VH: EVQLVESGGGLIQPGGSLRLSCAASGFTVSSNYMSWVRQAPGKGLEWVSVIYSGGTTYYADSVKGRFTISRDNSKNTVFLQMNSLRAEDTAVYYCARGDVSGYRYGLDYWGQGTLVTVS
VL: DIQLTQSPSSLSASVGDRVTITCRASQGISSYLAWYQQKPGKAPKLLIYAASTLQSGVPSRFSGSGSGTDFTLTISSLQPEDFATYYCQQLNSYPGTFGQGTKLEIK
B2: C1A-C2 Fab (Fab, V domains shown)
VH: EVQLVESGGGLIQPGGSLRLSCAVSGFTVSNNYMSWVRQAPGKGLEWVSVIYSGGTTYYADSVKGRFTISRDNSKNTLYLQMNSLRAEDTAVYYCARGDVSGYRYGLDYWGQGTLVTVS
VL: DIQLTQSPSSLSAFVGDRVTITCRASEGISSYLAWYQQKPGNAPKLLIYAASTLESGVPSRFSGSGSGTDFTLTISSLQPEDFATYYCQQLNSYPGTFGQGTKLEIK
B3: C1A-F10 Fab (Fab, V domains shown)
VH: EVQLVESGGGLIQPGGSLRLSCAASGFTVSSNYMSWVRQAPGKGLEWVSVIYSGGTTYYADSVKGRFTISRDNSKNTLYLQMNSLRAEDTAVYYCARGDVSGYRYGLDYWGQGTLVTVS
VL: DIQLTQSPSSLSASVGDRVTITCRASQGISSYLAWYQQKPGKAPKLLIYAASTLENGVPSRFSGSGSGTDFTLTISSLQPEDFATYYCQQLNSYPGTFGQGTKLEIK

The experiment has as its target SARS-CoV-2 S receptor-binding domain (RBD), construct for crystallography (SARS-CoV-2, GenBank QHD43416.1 …, UniProt P0DTC2). The experiment is described as follows: crystal structure.
With B1, the binding result is listed as “binds”. The result for B2 reads “binds”. The result for B3 reads “binds”.
